Laboratory results from US20200095336A1.

How the values were obtained:
[1] = target: midgut brush-border membrane vesicle protein BBMV of Plutella xylostella; assay: competitive ELISA on coated BBMV; Cry1Ac varied against CCL-CCL_scFv (competitor, detected by its His tag)
[2] = target: midgut brush-border membrane vesicle protein BBMV of Plutella xylostella; assay: competitive ELISA on coated BBMV; Cry1Ab varied against CCL-CCL_scFv (competitor, detected by its His tag)
[3] = target: midgut brush-border membrane vesicle protein BBMV of Plutella xylostella; assay: BLI (Octet), BBMV coated on APS biosensor, analyte at 4, 2, 1 and 0.5 µM
[4] = target: midgut brush-border membrane vesicle protein BBMV of Plutella xylostella; assay: ELISA on coated BBMV, anti-His-tag HRP

Molecule	IC50 [1] [µg/mL]	inhibition rate [1] [%]	IC50 [2] [µg/mL]	Kd [3] [nM]	OD450 [4] [OD450]
Bt toxin Cry1Ac (ligand)	1.7	90			
Bt toxin Cry1Ab (ligand)			3.02	127	
human-derived molecularly modified insecticidal protein CCL-CCL_scFv (scFv) scFv: MATDIQMTQSPSSLSASVGDRVTITCRASQSISSYLNWYQQKPGKAPKLLIYAASRLQSGVPSRFSGSGSGTDFTLTISSLQPEDFATYYCQQTSHPPLTFGQGTKVEIKRSSGGGGSGGGGSGGGGSTDIQMTQSPSSLSASVGDRVTITCRASQSISSYLNWYQQKPGKAPKLLIYAASRLQSGVPSRFSGSGSGTDFTLTISSLQPEDFATYYCQQTSHPPLTFGQGTKVEIKR				41.6	> 3
